Assays:
Experiment in all cases: cell-based or functional assay
[1] = biological target: EGFR (human (endogenous in HCC413), UniProt P00533 25-1210, N-glycans (sites not given))
[2] = biological target: c-Met (human (endogenous in HCC413), UniProt P08581 25-1390, N-glycans (sites not given))
[3] = biological target: HER3 (human (endogenous in HCC413), UniProt P21860 20-1342, N-glycans (sites not given))
Sequence of HER3 (P21860 20-1342): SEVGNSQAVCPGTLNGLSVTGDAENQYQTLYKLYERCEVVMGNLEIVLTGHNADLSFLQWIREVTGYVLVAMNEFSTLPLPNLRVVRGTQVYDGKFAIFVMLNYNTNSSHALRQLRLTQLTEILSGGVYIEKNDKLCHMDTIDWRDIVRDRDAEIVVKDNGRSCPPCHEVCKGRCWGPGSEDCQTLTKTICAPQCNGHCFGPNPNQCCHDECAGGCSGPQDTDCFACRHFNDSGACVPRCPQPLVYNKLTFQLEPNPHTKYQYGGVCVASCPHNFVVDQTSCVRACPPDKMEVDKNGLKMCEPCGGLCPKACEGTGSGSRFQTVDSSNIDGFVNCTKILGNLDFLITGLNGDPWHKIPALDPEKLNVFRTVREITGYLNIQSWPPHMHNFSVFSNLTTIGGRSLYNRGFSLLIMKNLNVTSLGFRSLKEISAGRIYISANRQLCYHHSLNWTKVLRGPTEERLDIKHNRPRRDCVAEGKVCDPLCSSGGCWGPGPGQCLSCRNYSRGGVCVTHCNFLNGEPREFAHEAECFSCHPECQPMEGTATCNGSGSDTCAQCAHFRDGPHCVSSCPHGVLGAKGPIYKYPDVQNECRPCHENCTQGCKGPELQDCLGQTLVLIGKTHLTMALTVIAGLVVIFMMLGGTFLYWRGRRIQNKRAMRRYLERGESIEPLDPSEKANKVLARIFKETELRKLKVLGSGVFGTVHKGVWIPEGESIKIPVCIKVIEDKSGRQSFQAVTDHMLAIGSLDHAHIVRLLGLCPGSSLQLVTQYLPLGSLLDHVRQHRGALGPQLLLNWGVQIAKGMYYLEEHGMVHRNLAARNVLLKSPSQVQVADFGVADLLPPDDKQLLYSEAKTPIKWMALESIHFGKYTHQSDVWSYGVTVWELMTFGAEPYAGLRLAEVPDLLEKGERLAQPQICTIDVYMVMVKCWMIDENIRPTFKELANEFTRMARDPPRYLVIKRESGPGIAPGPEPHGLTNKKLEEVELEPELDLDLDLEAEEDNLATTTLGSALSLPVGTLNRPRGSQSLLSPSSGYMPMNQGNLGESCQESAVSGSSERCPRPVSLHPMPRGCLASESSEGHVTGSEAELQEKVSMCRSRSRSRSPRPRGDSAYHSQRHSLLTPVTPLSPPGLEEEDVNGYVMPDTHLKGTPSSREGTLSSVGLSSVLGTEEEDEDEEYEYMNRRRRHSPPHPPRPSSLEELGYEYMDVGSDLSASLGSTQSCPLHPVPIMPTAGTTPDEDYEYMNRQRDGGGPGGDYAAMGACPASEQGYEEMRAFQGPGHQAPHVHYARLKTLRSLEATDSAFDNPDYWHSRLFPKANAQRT

Sequence of c-Met (P08581 25-1390): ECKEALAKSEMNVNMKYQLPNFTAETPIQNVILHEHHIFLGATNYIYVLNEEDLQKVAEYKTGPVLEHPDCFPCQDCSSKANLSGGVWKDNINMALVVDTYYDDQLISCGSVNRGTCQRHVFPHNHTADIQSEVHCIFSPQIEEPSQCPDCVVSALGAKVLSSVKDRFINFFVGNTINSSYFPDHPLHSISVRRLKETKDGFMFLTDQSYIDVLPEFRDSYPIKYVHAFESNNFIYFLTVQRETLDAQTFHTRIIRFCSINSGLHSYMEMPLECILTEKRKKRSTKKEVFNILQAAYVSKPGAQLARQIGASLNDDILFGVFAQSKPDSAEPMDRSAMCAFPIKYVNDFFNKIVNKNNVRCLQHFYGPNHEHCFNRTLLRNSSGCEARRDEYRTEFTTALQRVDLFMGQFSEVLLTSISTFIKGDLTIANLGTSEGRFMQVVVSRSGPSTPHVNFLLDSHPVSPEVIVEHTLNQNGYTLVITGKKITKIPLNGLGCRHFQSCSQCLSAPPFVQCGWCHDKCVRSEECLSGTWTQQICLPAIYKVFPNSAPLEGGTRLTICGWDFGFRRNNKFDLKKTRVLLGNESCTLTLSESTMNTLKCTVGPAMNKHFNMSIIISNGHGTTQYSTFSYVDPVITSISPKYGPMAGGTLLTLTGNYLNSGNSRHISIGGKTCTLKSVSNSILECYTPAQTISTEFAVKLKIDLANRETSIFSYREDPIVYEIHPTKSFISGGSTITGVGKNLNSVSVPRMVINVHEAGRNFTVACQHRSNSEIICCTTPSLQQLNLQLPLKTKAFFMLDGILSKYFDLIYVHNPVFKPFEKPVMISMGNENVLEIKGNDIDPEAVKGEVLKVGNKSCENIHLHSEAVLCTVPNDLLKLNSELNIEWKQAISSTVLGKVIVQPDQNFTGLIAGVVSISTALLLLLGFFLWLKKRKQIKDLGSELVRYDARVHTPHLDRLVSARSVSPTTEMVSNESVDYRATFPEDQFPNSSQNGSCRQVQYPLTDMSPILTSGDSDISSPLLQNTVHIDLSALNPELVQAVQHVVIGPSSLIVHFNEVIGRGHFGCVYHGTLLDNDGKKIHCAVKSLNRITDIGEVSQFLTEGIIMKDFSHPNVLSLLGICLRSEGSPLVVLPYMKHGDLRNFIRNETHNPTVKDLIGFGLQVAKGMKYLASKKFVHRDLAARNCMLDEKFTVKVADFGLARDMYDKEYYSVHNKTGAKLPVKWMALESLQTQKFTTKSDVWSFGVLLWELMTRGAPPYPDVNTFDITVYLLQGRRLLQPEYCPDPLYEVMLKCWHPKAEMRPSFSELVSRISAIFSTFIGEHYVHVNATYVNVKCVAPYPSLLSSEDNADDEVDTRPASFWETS

decrease in phosphorylated ERK in HCC413, LZ-8 0.2 and 0.8 uM, 24 h; Western blot [1]: 85 to 90%
phosphorylated JNK in HCC413, LZ-8 0.2 and 0.8 uM, 24 h; Western blot [1]: 50%
phosphorylated c-jun in HCC413, LZ-8 0.2 and 0.8 uM, 24 h; Western blot [1]: 75%
decrease in phosphorylated ERK in HCC413, LZ-8 0.2 and 0.8 uM, 24 h; Western blot [2]: 85 to 90%
phosphorylated JNK in HCC413, LZ-8 0.2 and 0.8 uM, 24 h; Western blot [2]: 50%
phosphorylated c-jun in HCC413, LZ-8 0.2 and 0.8 uM, 24 h; Western blot [2]: 75%
decrease in phosphorylated ERK in HCC413, LZ-8 0.2 and 0.8 uM, 24 h; Western blot [3]: 85 to 90%
phosphorylated JNK in HCC413, LZ-8 0.2 and 0.8 uM, 24 h; Western blot [3]: 50%
phosphorylated c-jun in HCC413, LZ-8 0.2 and 0.8 uM, 24 h; Western blot [3]: 75%
B1: Ling-Zhi-8 (natural protein, Ganoderma lucidium, UniProt P14945 1-111, looked up)
chain: MSDTALIFRLAWDVKKLSFDYTPNWGRGNPNNFIDTVTFPKVLTDKAYTYRVAVSGRNLGVKPSYAVESDGSQKVNFLEYNSGYGIADTNTIQVFVVDPDTNNDFIIAQWN

Reference: article PMC6356446, “Involvement of N-glycan in Multiple Receptor Tyrosine Kinases Targeted by Ling-Zhi-8 for Suppressing HCC413 Tumor Progression” (Cancers, 2018)
